Measurements published in the supplement of paper PMC12667976.
± gives the standard error.

B1: library; numbered along this chain (parent)
chain: MATDAALRRLLRLHRTEIAVAVDSAFPLLHALADHDVVPEDKFQETLHLKEKEGCPQAFHALLSWLLTQDSTAILDFWRVLFKDYNLERYGRLQPILDSFPKDVDLSQPRKGRKPPAVPKALVPPPRLPTKRKASEEARAAAPAALTPRGTASPGSQLKAKPPKKPESSAEQQRLPLGNGIQTMSASVQRAVAMSSGDVPGARGAVEGILIQQVFESGGSKKCIQVGGEFYTPSKFEDSGSGKNKARSSSGPKPLVRAKGAQGAAPGGGEARLGQQGSVPAPLALPSDPQLHQKNEDECAVCRDGGELICCDGCPRAFHLACLSPPLREIPSGTWRCSSCLQATVQEVQPRAEEPRPQEPPVETPLPPGLRSAGEEVRGPPGEPLAGMDTTLVYKHLPAPPSAAPLPGLDSSALHPLLCVGPEGQQNLAPGARCGVCGDGTDVLRCTHCAAAFHWRCHFPAGTSRPGTGLRCRSCSGDVTPAPVEGVLAPSPARLAPGPAKDDTASHEPALHRDDLESLLSEHTFDGILQWAIQSMARPAAPFPS

Variants of: B1
Assay: AIRE transcriptional activation functional score (insulin promoter-GFP; nonsense median 0, synonymous median 1) (normalised score); higher = higher AIRE activity (more reporter activation)
Conditions: with insulin promoter-GFP reporter in HEK293
Summary of the method: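 Using Bxb1 recombinase, codon-optimized NNN-codon libraries for three AIRE regions were inserted into Flp-In T-REx HEK293 landing-pad cells with an insulin core promoter-GFP reporter. After integrants (mCherry+, BFP−) were sorted at day 7 and expanded for 7 days, the top 10% GFP and unselected integrant populations underwent tile-sequencing. Functional scores are wild-type-subtracted enrichments of variants in select over non-select samples. A cutoff of 10 counts per million in non-select applied, and values were rescaled (nonsense median 0, synonymous median 1) and averaged over biological replicates.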

Row | Variant | AIRE transcriptional activation functional score
1 | R471F | 1.09 ± 0.21
2 | R471E | 0.786 ± 0.84
3 | R471A | 0.351 ± 0.28
4 | G155S | 0.589 ± 0.56
5 | N244V | 0.206 ± 0.086
6 | R174H | 0.805 ± 0.43
7 | A19V | -0.0384 ± 0.33
8 | A19C | 0.605 ± 0.3
9 | T72D | 2.22 ± 1.8
10 | P539T | 0.931 ± 0.2
11 | D76C | 0.409 ± 0.76
12 | E17N | -0.662 ± 0.64
13 | E17D | 1.42 ± 0.72
14 | P401A | 0.611 ± 0.47
15 | G197N | 1.26 ± 0.45
16 | G197S | 1.12 ± 0.23
17 | L273C | 0.741 ± 0.15
18 | L273D | 0.505 ± 0.15
19 | D410N | 1.12 ± 0.066
20 | T441P | 1.13 ± 0.11
21 | T441A | 1.03 ± 0.36
22 | T441V | 0.851 ± 0.17
23 | S411E | 0.407 ± 0.085
24 | R303A | 0.349 ± 0.41

Row | Variant | AIRE transcriptional activation functional score
25 | T468H | 0.996 ± 0.11
26 | N179K | 1.14 ± 0.18
27 | K294R | 1.17 ± 0.3
28 | L97P | 0.384 ± 0.59
29 | T46I | 0.403 ± 0.67
30 | L175Y | 1.5 ± 0.28
31 | T524H | -0.0688 ± 0.42
32 | G240V | 0.921 ± 0.076
33 | R110M | 0.295 ± 0.11
34 | A461N | 1.38 ± 0.038
35 | F453Q | -0.136 ± 0.063
36 | F453W | 1.24 ± 0.025
37 | V192H | 0.776 ± 0.17
38 | A505R | 0.832 ± 0.26
39 | R473K | 0.66 ± 0.16
40 | A145V | 0.722 ± 0.18
41 | P282Q | 0.976 ± 0.13
42 | D297L | 0.697 ± 0.32
43 | A386L | 1.36 ± 0.11
44 | R12D | -0.77 ± 0.14
45 | R12S | -0.0905 ± 0.47
46 | P148V | 1.45 ± 0.56
47 | P148L | 1.45 ± 0.61
48 | S239D | 0.131 ± 0.14

Row | Variant | AIRE transcriptional activation functional score
49 | L158H | 0.949 ± 0.3
50 | V199F | 1.24 ± 0.24
51 | R351Y | 0.693 ± 0.3
52 | R351Q | 1.44 ± 0.17
53 | S153N | 0.697 ± 0.74
54 | T16S | -0.287 ± 0.29
55 | K111Y | 1.29 ± 0.15
56 | I211L | 0.428 ± 0.43
57 | P124Q | 0.964 ± 0.14
58 | P124L | 1.09 ± 0.26
59 | F59Y | -0.0924 ± 0.19
60 | E216D | 0.741 ± 0.24
61 | R139D | 0.568 ± 0.48
62 | R139W | 1.54 ± 0.1
63 | R445S | 0.952 ± 0.26
64 | R445C | 0.188 ± 0.15
65 | S249P | 0.451 ± 0.43
66 | L366Y | 0.821 ± 0.081
67 | L255W | 1.1 ± 0.054
68 | V20D | 0.0604 ± 0.26
69 | H523K | 0.199 ± 0.14
70 | A170D | 0.761 ± 0.51
71 | P39M | -0.22 ± 0.14
72 | V38L | 0.157 ± 0.43

Row | Variant | AIRE transcriptional activation functional score
73 | V38D | -0.427 ± 0.2
74 | P163S | 1.3 ± 0.47
75 | P163E | 0.136 ± 0.17
76 | P163Y | 1.53 ± 0.24
77 | V22D | -0.245 ± 0.35
78 | R494T | 0.134 ± 0.14
79 | P325D | 0.208 ± 0.6
80 | L327Y | 1.2 ± 0.3
81 | L327A | 1.07 ± 0.3
82 | P200C | 1.43 ± 0.034
83 | A246E | 0.55 ± 0.12
84 | G274E | 0.611 ± 0.097
85 | S278C | 0.735 ± 0.17
86 | E53C | 1.45 ± 0.33
87 | T68F | -0.0989 ± 0.12
88 | E296F | 1.09 ± 0.11
89 | C472R | 0.0742 ± 0.14
90 | C322H | 1.5 ± 0.083
91 | P109H | 1.28 ± 0.19
92 | G462N | 1.34 ± 0.14
93 | E359T | 0.92 ± 0.23
94 | E359Y | 1.11 ± 0.12
95 | E359H | 0.97 ± 0.34
96 | A271R | 0.714 ± 0.37

Row | Variant | AIRE transcriptional activation functional score
97 | A261F | 1.22 ± 0.052
98 | A261T | 1.07 ± 0.19
99 | A261G | 1.01 ± 0.21
100 | A33S | 0.0699 ± 0.49
101 | L385T | 0.874 ± 0.097
102 | T130Y | 1.11 ± 0.15
103 | T480F | 1.32 ± 0.13
104 | I309Y | 1.19 ± 0.18
105 | I309N | 1.23 ± 0.053
106 | Q213W | -1.06 ± 0.29
107 | P95H | 0.425 ± 0.95
108 | E329T | 0.98 ± 0.26
109 | A284Q | 1.39 ± 0.3
110 | F230I | 0.507 ± 0.29
111 | F230N | 0.425 ± 0.38
112 | F230R | 0.603 ± 0.38
113 | I96S | -0.438 ± 0.35
114 | I96E | 0.112 ± 0.27
115 | S506P | 1.11 ± 0.67
116 | S506T | 0.197 ± 0.42
117 | G260H | 1.19 ± 0.08
118 | Q212K | 1.04 ± 0.026
119 | K395F | 0.828 ± 0.12
120 | G242V | 1.04 ± 0.1

Row | Variant | AIRE transcriptional activation functional score
121 | E517D | 1.25 ± 0.16
122 | S220Y | -0.203 ± 0.11
123 | G438D | 0.196 ± 0.064
124 | P499V | 1.21 ± 0.17
125 | Q69I | -0.279 ± 0.22
126 | P365G | 0.47 ± 0.33
127 | H512T | 0.649 ± 0.32
128 | T390P | 0.842 ± 0.15
129 | A264V | 1.07 ± 0.3
130 | L417F | 1.3 ± 0.11
131 | L417E | 0.739 ± 0.049
132 | L417H | 0.632 ± 0.12
133 | P176N | 0.411 ± 0.54
134 | P176S | 1.4 ± 0.46
135 | P176W | 1.08 ± 0.08
136 | T183Y | -0.205 ± 0.25
137 | T183D | 0.425 ± 0.043
138 | H292K | 0.992 ± 0.13
139 | D288N | 0.786 ± 0.39
140 | D288M | 1.31 ± 0.15
141 | K52E | 0.994 ± 0.58
142 | S476C | 0.608 ± 0.23
143 | I533T | 0.516 ± 0.061
144 | A191D | 0.948 ± 0.14

Row | Variant | AIRE transcriptional activation functional score
145 | F543G | 0.595 ± 0.26
146 | A352Q | 0.697 ± 0.051
147 | P126C | 0.317 ± 0.087
148 | P125F | 0.97 ± 0.082
149 | P254I | 0.86 ± 0.25
150 | T334C | 0.7 ± 0.29
151 | T334F | 1.25 ± 0.23
152 | V226N | -0.139 ± 0.091
153 | Y90K | -0.475 ± 0.32
154 | P286K | 0.495 ± 0.61
155 | P286T | 1.07 ± 0.25
156 | A160Q | -0.113 ± 0.054
157 | A160R | 1.01 ± 0.8
158 | P384E | 1.39 ± 0.04
159 | R316P | 1.14 ± 0.23
160 | R316M | 1.04 ± 0.022
161 | P119C | 1.04 ± 0.56
162 | P119V | 0.878 ± 0.6
163 | P381G | 1.11 ± 0.23
164 | Q173D | 0.988 ± 0.11
165 | S64I | -0.0655 ± 0.31
166 | M194V | 1.31 ± 0.28
167 | I209Y | 0.98 ± 0.43
